Assay [1] deals with BSA (UniProt P02769 25-607). Description: single-point ELISA, BSA control.
For assay [2], the target named is gp120 SHIV SF162 P3 (SHIV SF162 P3). Description: single-point ELISA at EC50 conc. of A-1. (In an ELISA, binding on a coated surface is turned into a signal by an enzyme label.)
Assay [3] has as its target gp120 Bal (HIV (Bal)). Description: single-point ELISA at EC50 conc. of A-1.
In assay [4] the target is gp120 CAAN (HIV (CAAN)). Description: single-point ELISA at EC50 conc. of A-1.

B1: 1.34.33-1 (antibody, human IgG1, kappa)
heavy: QVQLVQSGAEVKKPGASVRVSCKASGYNIRDYFIHWWRQAPGQGLQWVGWINPKTGQPNNPRQFQGRVTLTRHASWDFDTFSFYMDLKALRSDDTAVYFCARQRTDYWDFDVWGSGTQVTVSSASTKGPSVFPLAPSSKSTSGGTAALGCLVKDYFPEPVTVSWNSGALTSGVHTFPAVLQSSGLYSLSSVVTVPSSSLGTQTYICNVNHKPSNTKVDKKVEPKSCDKTHTCPPCPAPELLAGPDVFLFPPKPKDTLMISRTPEVTCVVVDVSHEDPEVKFNWYVDGVEVHNAKTKPREEQYNSTYRVVSVLTVLHQDWLNGKEYKCKVSNKALPLPEEKTISKAKGQPREPQVYTLPPSREEMTKNQVSLTCLVKGFYPSDIAVEWESNGQPENNYKTTPPVLDSDGSFFLYSKLTVDKSRWQQGNVFSCSVLHEALHSHYTQKSLSLSPGK
light: DIQMTQSPSSLSASVGDTVTITCQANGYLNWYQQRRGKAPKLLIYDGSNLERGVPSRFSGRRWGQEYTLTISSLQPEDIATYFCQVYEFVVPGTNLDIKRTVAAPSVFIFPPSDEQLKSGTASVVCLLNNFYPREAKVQWKVDNALQSGNSQESVTEQDSKDSTYSLSSTLTLSKADYEKHKVYACEVTHQGLSSPVTKSFNRGEC
For B1, the “ELISA A450” value stood at 0.06 A450 in assay [1], 0.82 A450 in assay [2], 1.1 A450 in assay [3] and 1.04 A450 in assay [4].

B2: 1.2.2-1 (antibody, human IgG1)
heavy: QVQLLQSGAEVKKPGASVRVSCEASGYNIRDYFIHWWRQAPGQGLQWVGWINPKTGQPNNPRQFQGRVSLTRHASWDFDTFSFYMDLKALRSDDTAVYFCARQRSDYWDFDVWGSGTMVTVSSASTKGPSVFPLAPSSKSTSGGTAALGCLVKDYFPEPVTVSWNSGALTSGVHTFPAVLQSSGLYSLSSVVTVPSSSLGTQTYICNVNHKPSNTKVDKKVEPKSCDKTHTCPPCPAPELLAGPDVFLFPPKPKDTLMISRTPEVTCVVVDVSHEDPEVKFNWYVDGVEVHNAKTKPREEQYNSTYRVVSVLTVLHQDWLNGKEYKCKVSNKALPLPEEKTISKAKGQPREPQVYTLPPSREEMTKNQVSLTCLVKGFYPSDIAVEWESNGQPENNYKTTPPVLDSDGSFFLYSKLTVDKSRWQQGNVFSCSVLHEALHSHYTQKSLSLSPGK
VL: DIQMTQSPSSLSASVGDTVTITCQANGYLNWYQQKPGKAPKLLIYDGSKLERGVPSRFSGRRWGQEYNLTINNLQPEDIATYFCQVYEFVVPGTKVDIK
As to B2, the “ELISA A450” value in assay [1] is 0.06 A450; in assay [2], 0.97 A450; in assay [3] it was 0.91 A450; in assay [4], 0.8 A450.

B3: 1.22.1-1 (antibody, human IgG1, kappa)
heavy: QVQLLQSGAAVTKPGASVRVSCEASGYNIRDYFIHWWRQAPGQGLQWVGWINPKTGQPNNPRQFQGRVSLTRHASTFSFYMDLKALRSDDTAVYFCARQRSDYWDFDVWGSGTQVTVSSASTKGPSVFPLAPSSKSTSGGTAALGCLVKDYFPEPVTVSWNSGALTSGVHTFPAVLQSSGLYSLSSVVTVPSSSLGTQTYICNVNHKPSNTKVDKKVEPKSCDKTHTCPPCPAPELLAGPDVFLFPPKPKDTLMISRTPEVTCVVVDVSHEDPEVKFNWYVDGVEVHNAKTKPREEQYNSTYRVVSVLTVLHQDWLNGKEYKCKVSNKALPLPEEKTISKAKGQPREPQVYTLPPSREEMTKNQVSLTCLVKGFYPSDIAVEWESNGQPENNYKTTPPVLDSDGSFFLYSKLTVDKSRWQQGNVFSCSVLHEALHSHYTQKSLSLSPGK
light: DIQMTQSPSSLSASVGDTVTITCQANGYLNWYQQRRGKAPKLLIYDGSKLERGVPSRFSGRRWGQEYNLTINNLQPEDIATYFCQVYEFVVPGTRLDLKRTVAAPSVFIFPPSDEQLKSGTASVVCLLNNFYPREAKVQWKVDNALQSGNSQESVTEQDSKDSTYSLSSTLTLSKADYEKHKVYACEVTHQGLSSPVTKSFNRGEC
On to B3, for which the “ELISA A450” value came to 0.06 A450 in assay [1], 0.78 A450 in assay [2], 1.03 A450 in assay [3] and 0.87 A450 in assay [4].

B4: 1v2-1 (antibody, human IgG1, kappa)
heavy: QVQLLQSGAAVTKPGASVRVSCEASGYNIRDYFIHWWRQAPGQGLQWVGWINPKTGQPNNPRQFQGRVSLTRHASWDFDTYSFYMDLKALRSDDTAVYFCARQRSDYWDFDVWGSGTQVTVSSASTKGPSVFPLAPSSKSTSGGTAALGCLVKDYFPEPVTVSWNSGALTSGVHTFPAVLQSSGLYSLSSVVTVPSSSLGTQTYICNVNHKPSNTKVDKKVEPKSCDKTHTCPPCPAPELLAGPDVFLFPPKPKDTLMISRTPEVTCVVVDVSHEDPEVKFNWYVDGVEVHNAKTKPREEQYNSTYRVVSVLTVLHQDWLNGKEYKCKVSNKALPLPEEKTISKAKGQPREPQVYTLPPSREEMTKNQVSLTCLVKGFYPSDIAVEWESNGQPENNYKTTPPVLDSDGSFFLYSKLTVDKSRWQQGNVFSCSVLHEALHSHYTQKSLSLSPGK
light: DIQMTQSPSSLSASVGDTVTITCQANGYLNWYQQRRGKAPKLLIYDGSKLERGVPSRFSGRRWGQEYNLTINNLQPEDIATYFCQVYEFVVPGTRLDLKRTVAAPSVFIFPPSDEQLKSGTASVVCLLNNFYPREAKVQWKVDNALQSGNSQESVTEQDSKDSTYSLSSTLTLSKADYEKHKVYACEVTHQGLSSPVTKSFNRGEC
On to B4, for which the “ELISA A450” value is 0.08 A450 in assay [1], 1.29 A450 in assay [2], 1.03 A450 in assay [3] and 1 A450 in assay [4].

B5: 1.1.2-1 (antibody, human IgG1)
heavy: QVQLLQSGAAVTKPGASVRVSCEASGYNIRDYFIHWWRQAPGQGLQWVGWINPKTGQPNNPRQFQGRVSLTRHASWDFDTFSFYMDLKALRSDDTAVYFCARQRSDYWDFDVWGSGTQVTVSSASTKGPSVFPLAPSSKSTSGGTAALGCLVKDYFPEPVTVSWNSGALTSGVHTFPAVLQSSGLYSLSSVVTVPSSSLGTQTYICNVNHKPSNTKVDKKVEPKSCDKTHTCPPCPAPELLAGPDVFLFPPKPKDTLMISRTPEVTCVVVDVSHEDPEVKFNWYVDGVEVHNAKTKPREEQYNSTYRVVSVLTVLHQDWLNGKEYKCKVSNKALPLPEEKTISKAKGQPREPQVYTLPPSREEMTKNQVSLTCLVKGFYPSDIAVEWESNGQPENNYKTTPPVLDSDGSFFLYSKLTVDKSRWQQGNVFSCSVLHEALHSHYTQKSLSLSPGK
VL: DIQMTQSPSSLSASVGDTVTITCQANGYLNWYQQKPGKAPKLLIYDGSKLERGVPSRFSGRRWGQEYNLTINNLQPEDIATYFCQVYEFVVPGTKVDIK
Consider B5, for which the “ELISA A450” value in assay [1] stood at 0.06 A450; in assay [2] it was 1.01 A450; in assay [3] it was 0.95 A450; in assay [4] it was 0.93 A450.

B6: 1.34.34-1 (antibody, human IgG1, kappa)
heavy: QVQLVQSGAEVKKPGASVRVSCKASGYNIRDYFIHWWRQAPGQGLQWVGWINPKTGQPNNPRQFQGRVTLTRHASWDFDTFSFYMDLKALRSDDTAVYFCARQRTDYWDFDVWGSGTQVTVSSASTKGPSVFPLAPSSKSTSGGTAALGCLVKDYFPEPVTVSWNSGALTSGVHTFPAVLQSSGLYSLSSVVTVPSSSLGTQTYICNVNHKPSNTKVDKKVEPKSCDKTHTCPPCPAPELLAGPDVFLFPPKPKDTLMISRTPEVTCVVVDVSHEDPEVKFNWYVDGVEVHNAKTKPREEQYNSTYRVVSVLTVLHQDWLNGKEYKCKVSNKALPLPEEKTISKAKGQPREPQVYTLPPSREEMTKNQVSLTCLVKGFYPSDIAVEWESNGQPENNYKTTPPVLDSDGSFFLYSKLTVDKSRWQQGNVFSCSVLHEALHSHYTQKSLSLSPGK
light: DIQMTQSPSSLSASVGDTVTITCQANGYLNWYQQRRGKAPKLLIYDGSNLERGVPSRFSGRRWGQEYTLTISSLQPEDIATYFCQVYEFVTPGTRLDIKRTVAAPSVFIFPPSDEQLKSGTASVVCLLNNFYPREAKVQWKVDNALQSGNSQESVTEQDSKDSTYSLSSTLTLSKADYEKHKVYACEVTHQGLSSPVTKSFNRGEC
Regarding B6, the “ELISA A450” value turned out to be 0.06 A450 in assay [1], 0.7 A450 in assay [2], 0.89 A450 in assay [3] and 0.88 A450 in assay [4].
